Results on two molecules are retold here after patent US20030140381, “Genes and regulatory DNA sequences associated with stress-related gene expression in plants and methods of using the same” (Pioneer Hi-Bred International, Inc., published 2003).

Data set [1] deals with T1, ZmABI4 (maize ABI4, AP2-domain transcription factor) (Zea mays). As to the kind of experiment: EMSA; described as high affinity. In general terms: In EMSA bound probe runs differently from free probe, usually more slowly.
For data set [2], the target named is T1, ZmABI4 (maize ABI4, AP2-domain …). As to the kind of experiment: EMSA.

T1 sequence (chain, as listed by the source): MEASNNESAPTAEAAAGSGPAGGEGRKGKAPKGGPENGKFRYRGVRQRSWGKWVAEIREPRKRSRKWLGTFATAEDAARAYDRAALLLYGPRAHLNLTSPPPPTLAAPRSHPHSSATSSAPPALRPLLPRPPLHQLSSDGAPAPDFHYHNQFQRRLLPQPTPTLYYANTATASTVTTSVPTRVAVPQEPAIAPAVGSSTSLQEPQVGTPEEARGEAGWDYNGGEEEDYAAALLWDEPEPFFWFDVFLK

B1: Adh1 promoter element (-246 to -229) (dsDNA)
DNA 1: CGCCGCCACCGCTTGGCG
DNA 2: CGCCAAGCGGTGGCGGCG
As for B1, the binding result in data set [1] is listed as “binds”.

B2: ZmABI4 upstream element (-175 to -158) (dsDNA)
DNA 1: TTTGACCACCGCCCCTCT
DNA 2: AGAGGGGCGGTGGTCAAA
On to B2, for which the binding result in data set [2] is “binds”.
